Experimental data reported in paper PMC4686830, “Ankyrin-mediated self-protection during cell invasion by the bacterial predator Bdellovibrio bacteriovorus” (Nature Communications, 2015).

Columns and labels:
[1] = target: T1, Bd3459:Bd3460 complex (Bd3459^M/Bd3460) (Bdellovibrio bacteriovorus, UniProt Q6MHT0, K38M); assay: X-ray crystallography, […] A, crystal soak; assay type: binding; settings: covalent; acylation of active-site serine (Ser70) of Bd3459; pre-grown complex crystals soaked with 2 mM penicillin G for 1 h
T1 construct: 1:1 heterodimer; with Ankyrin repeat protein (self-protection protein)
T1 sequence (Q6MHT0 38-446 K38M): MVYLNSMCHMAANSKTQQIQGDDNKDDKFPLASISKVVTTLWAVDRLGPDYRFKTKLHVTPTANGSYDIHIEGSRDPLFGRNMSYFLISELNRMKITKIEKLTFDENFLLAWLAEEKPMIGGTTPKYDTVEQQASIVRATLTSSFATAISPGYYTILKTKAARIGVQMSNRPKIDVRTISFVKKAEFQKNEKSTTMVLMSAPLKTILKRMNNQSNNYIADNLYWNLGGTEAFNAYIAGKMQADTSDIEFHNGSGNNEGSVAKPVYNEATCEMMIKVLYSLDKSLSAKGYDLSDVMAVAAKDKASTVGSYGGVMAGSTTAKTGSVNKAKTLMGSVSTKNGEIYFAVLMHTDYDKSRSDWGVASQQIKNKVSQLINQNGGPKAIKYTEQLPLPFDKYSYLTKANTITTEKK
T1 sequence (Q6MHS9 25-220 A25M partner limits assumed): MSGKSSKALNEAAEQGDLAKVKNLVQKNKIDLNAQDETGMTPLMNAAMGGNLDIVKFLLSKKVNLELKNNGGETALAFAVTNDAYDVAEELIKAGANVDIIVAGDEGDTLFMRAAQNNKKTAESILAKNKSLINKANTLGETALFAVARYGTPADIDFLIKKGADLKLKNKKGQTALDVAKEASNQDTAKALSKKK

[2] = target: Bd3459 DD-endopeptidase, purified (original construct, A37M start) (Bdellovibrio bacteriovorus HD100) (UniProt Q6MHT0); assay: other fluorescence titration; intrinsic tryptophan fluorescence, excitation 280 nm, change of emission at 340 nm; 10 uM Bd3459 in the cuvette, Bd3460 titrated in; 25 °C; buffer B with Tris (10 mM pH 7.2, 0.25 M NaCl); one site-specific binding isotherm
[3] = target: Bd3459 DD-endopeptidase, purified, active site serine acylated by penicillin G (Bdellovibrio bacteriovorus HD100) (UniProt Q6MHT0); assay: other fluorescence titration; as a2, but Bd3459 pre-incubated with 0.75 mM penicillin G before titration with Bd3460
[4] = target: T2, Bd3459 DD-endopeptidase, new construct starting post signal peptide with K38M, C-terminal H8 tag (Bdellovibrio bacteriovorus HD100, UniProt Q6MHT0 38-446, K38M); assay: co-purification (His-tag affinity); H8-tagged endopeptidase and untagged Bd3460 co-expressed in E. coli and purified together on a His column; buffer C (20 mM imidazole pH 8.0, 0.4 M NaCl, 0.05% w/v Tween20); settings: partners not purified
T2 construct: Bd3459 of Bdellovibrio bacteriovorus HD100, predicted secreted form, starting post signal peptide with K38 mutated to become the new N-terminal methionine; The active site serine S70 is unchanged: the crystals of this complex could be acylated with penicillin G. PDB 5CEB holds the same limits with S70A; also called tagged Bd3459; Bd3459^M; source: E. coli T7 express, co-expressed from pCDF-Duet1 …
T2 sequence (looked up): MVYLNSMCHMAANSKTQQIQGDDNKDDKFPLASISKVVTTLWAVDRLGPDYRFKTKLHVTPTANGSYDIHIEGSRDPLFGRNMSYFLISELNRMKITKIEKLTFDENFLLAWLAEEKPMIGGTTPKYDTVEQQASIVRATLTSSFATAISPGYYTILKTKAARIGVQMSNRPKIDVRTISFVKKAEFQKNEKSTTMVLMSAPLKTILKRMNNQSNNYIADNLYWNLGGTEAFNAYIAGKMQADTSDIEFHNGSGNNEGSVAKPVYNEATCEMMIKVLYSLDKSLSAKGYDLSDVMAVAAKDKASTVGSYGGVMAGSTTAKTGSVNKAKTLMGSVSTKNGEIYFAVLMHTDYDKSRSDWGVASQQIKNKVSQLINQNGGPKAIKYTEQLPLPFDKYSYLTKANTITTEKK

[5] = target: T3, Bd0816 DD-endopeptidase S58A (K26M start, C-terminal H8 tag) (Bdellovibrio bacteriovorus HD100, UniProt Q6MPN2 26-436, K26M | S58A); assay: as above; settings: partners not purified
T3 construct: Bd0816 of Bdellovibrio bacteriovorus HD100, starting at K26M; active site serine mutated to alanine (S58A); Expression of wild-type Bd0816 was toxic, so the S58A mutant was used for the complex; It is a trimer in the crystal, while a 1:1 heterodimer with Bd3460 is said to dominate in solution; also called Bd0816 S58A; tagged Bd0816; source: E. coli T7 express, co-expressed from pCDF-Duet1 with …
T3 sequence (looked up): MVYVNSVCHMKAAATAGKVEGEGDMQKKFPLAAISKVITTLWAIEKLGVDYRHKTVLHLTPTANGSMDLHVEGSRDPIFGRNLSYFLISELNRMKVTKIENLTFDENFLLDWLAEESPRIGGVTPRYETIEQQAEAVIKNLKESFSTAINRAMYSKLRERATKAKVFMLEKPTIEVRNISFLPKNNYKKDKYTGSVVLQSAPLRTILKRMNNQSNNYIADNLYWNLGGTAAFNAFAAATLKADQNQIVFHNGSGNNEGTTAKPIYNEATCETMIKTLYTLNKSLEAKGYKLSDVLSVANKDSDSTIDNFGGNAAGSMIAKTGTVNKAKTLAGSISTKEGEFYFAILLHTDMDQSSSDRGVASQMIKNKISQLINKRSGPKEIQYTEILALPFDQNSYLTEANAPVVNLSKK

Molecule | X-ray crystallography, 2.02 A, crystal soak [1] | Kd [2] [µM] | fold reduction in affinity against unacylated Bd3459 [3] [fold] | stoichiometry N [4] | stoichiometry N [5]
CC1(C)S[C@@H]2[C@H](NC(=O)Cc3ccccc3)C(=O)N2[C@H]1C(=O)O [penicillin G] | acylating pre-grown Bd3459:Bd3460 complex crystals with penicillin G | – | – | – | –
Bd3460, exported domain (amino acids 26-220), untagged, co-expressed with an endopeptidase (natural protein, Bdellovibrio bacteriovorus HD100, UniProt Q6MHS9 25-220, looked up, The only change is the start methionine in place of A25; also called untagged Bd3460; source: E. coli T7 express, co-expressed from pCDF-Duet1 with the H8-tagged endopeptidase, co-purified (His column)) MSGKSSKALNEAAEQGDLAKVKNLVQKNKIDLNAQDETGMTPLMNAAMGGNLDIVKFLLSKKVNLELKNNGGETALAFAVTNDAYDVAEELIKAGANVDIIVAGDEGDTLFMRAAQNNKKTAESILAKNKSLINKANTLGETALFAVARYGTPADIDFLIKKGADLKLKNKKGQTALDVAKEASNQDTAKALSKKK | – | 26.8 | 2 | 1 | 1
